Test results from paper PMC4868323, “Interaction of Toll-Like Receptors with the Molecular Chaperone Gp96 Is Essential for Its Activation of Cytotoxic T Lymphocyte Response” (PLoS ONE, 2016).
No end group written: not given here.

Columns and labels:
Experiment in all cases: ELISA; biotinylated HBc87-95 on 96-well streptavidin plates; serial dilutions of gp96 0.03–200 μg/mL in 20 mM HEPES pH 7.2, 20 mM NaCl, 2 mM MgCl2, 100 mM KCl, 1.5 h; detected with rat anti-grp94 antibody; 300 μM radicicol as inhibitor
Details in all cases: both partners purified
[1] = target: T1, native mouse gp96 (mgp96) (mouse, UniProt P08113 22-802)
T1 construct: gp96 (GRP94, endoplasmin) purified from mouse liver; also called native gp96; source: purified from healthy mouse livers

[2] = target: T2, gp96 with Ala substitutions at the conserved residues in the first half of the CBD (gp96-mut), His-tagged (human, UniProt P14625 22-803, GWSGNMER (653-660) to AASAAAAA, read from the printed gp96-mut primer, FITC label on the portion used for flow cytometry (sites not given))
T2 construct: human gp96 (GRP94), mature protein, with Ala substitutions in the GWXGNMER motif of the CBD; positions follow the legend's 653-660 for the same eight residues deleted in gp96-ΔCBD; also called mutated gp96; mutant gp96; source: baculovirus (Bac-to-Bac, pFastBac1), purified (Ni-sepharose, Hitrap Q HP, Superdex 200)

[3] = target: T3, recombinant wild-type gp96 (gp96-wt), His-tagged (human, UniProt P14625 22-803, FITC label on the portion used for flow cytometry (sites not given))
T3 construct: human gp96 (GRP94), mature protein; cDNA in pET28a(+) subcloned with its His tag into pFastBac1; the 3' primer ends at ...EKDEL stop; The tag's end is read from the printed sense primer (MGSSHH..., as in pET28a); Unlabelled in the co-IP and ELISA, FITC-labelled in flow cytometry; also called FITC-gp96-wt; glucose-regulated protein 94; source: baculovirus (Bac-to-Bac, pFastBac1), purified …

Measured: binding result

T3 sequence (P14625 22-803): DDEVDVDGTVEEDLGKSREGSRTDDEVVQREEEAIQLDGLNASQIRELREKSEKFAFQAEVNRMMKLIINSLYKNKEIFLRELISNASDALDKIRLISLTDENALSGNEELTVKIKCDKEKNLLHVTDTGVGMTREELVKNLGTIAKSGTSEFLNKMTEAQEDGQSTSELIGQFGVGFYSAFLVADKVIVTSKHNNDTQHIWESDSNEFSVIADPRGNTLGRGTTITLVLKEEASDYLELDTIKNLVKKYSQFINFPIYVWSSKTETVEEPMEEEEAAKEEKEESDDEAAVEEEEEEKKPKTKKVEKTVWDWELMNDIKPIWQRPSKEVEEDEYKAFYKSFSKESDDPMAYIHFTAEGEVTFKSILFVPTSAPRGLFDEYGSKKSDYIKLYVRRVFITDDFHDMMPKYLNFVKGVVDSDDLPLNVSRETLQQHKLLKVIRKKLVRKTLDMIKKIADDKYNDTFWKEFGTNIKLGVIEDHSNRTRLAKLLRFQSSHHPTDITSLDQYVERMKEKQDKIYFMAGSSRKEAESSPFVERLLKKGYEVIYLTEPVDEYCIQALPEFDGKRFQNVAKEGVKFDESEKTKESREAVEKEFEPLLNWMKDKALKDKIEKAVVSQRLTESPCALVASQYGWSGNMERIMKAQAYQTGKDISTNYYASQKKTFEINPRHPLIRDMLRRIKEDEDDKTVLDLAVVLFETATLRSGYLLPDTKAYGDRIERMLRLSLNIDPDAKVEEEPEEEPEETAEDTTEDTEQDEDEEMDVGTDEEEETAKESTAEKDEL
T1 sequence (P08113 22-802): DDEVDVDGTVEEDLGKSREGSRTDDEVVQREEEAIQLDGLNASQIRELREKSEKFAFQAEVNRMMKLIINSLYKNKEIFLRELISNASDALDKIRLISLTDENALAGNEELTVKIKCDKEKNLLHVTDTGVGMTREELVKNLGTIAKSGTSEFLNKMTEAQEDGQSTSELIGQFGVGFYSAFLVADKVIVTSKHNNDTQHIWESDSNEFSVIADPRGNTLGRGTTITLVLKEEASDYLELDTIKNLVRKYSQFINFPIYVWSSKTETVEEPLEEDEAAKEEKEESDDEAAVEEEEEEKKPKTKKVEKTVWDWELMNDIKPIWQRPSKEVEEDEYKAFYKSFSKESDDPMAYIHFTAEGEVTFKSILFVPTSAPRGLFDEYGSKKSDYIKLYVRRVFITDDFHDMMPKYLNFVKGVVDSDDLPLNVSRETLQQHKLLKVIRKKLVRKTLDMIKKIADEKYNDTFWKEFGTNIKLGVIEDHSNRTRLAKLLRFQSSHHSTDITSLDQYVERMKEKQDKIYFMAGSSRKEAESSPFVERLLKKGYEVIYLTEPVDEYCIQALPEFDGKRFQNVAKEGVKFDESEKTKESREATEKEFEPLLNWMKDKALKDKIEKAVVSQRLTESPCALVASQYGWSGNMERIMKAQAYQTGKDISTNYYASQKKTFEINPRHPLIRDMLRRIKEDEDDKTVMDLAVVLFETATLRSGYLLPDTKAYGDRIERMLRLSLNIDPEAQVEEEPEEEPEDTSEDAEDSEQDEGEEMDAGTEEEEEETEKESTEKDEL
T2 sequence (P14625 other isoform, or with tags, fused parts or gaps with the stated changes): as the sequence (P14625 22-803) above, with G632A, W633A, G635A, N636A, M637A, E638A, R639A counted along it

B1: biotinylated peptide HBc87-95 (peptide)
peptide: SYVNTNMGL
modifications: also: biotinylated, position not given here
notes: also called HBcAg_(87–95); source: synthetic peptide (GL Biochem Ltd.)
binds: [1] | [2] | [3]
